Results reported in patent US12091776B2, “Protease activity profiling via programmable phage display of comprehensive proteome-scale peptide libraries” (THE JOHNS HOPKINS UNIVERSITY, priority 2019, dated 2024).

Tests used:
Caspase-1 [1] = target: T1, Caspase-1 (Homo sapiens, UniProt P29466); experiment: SEPARATE assay: 56-amino acid mouse peptidome library digested with Caspase-1; format: biochemical; settings: selected peptides, mouse library (56-aa tiles)
T1 construct: purchased BioVision
T1 sequence (P29466 120-297 limits assumed): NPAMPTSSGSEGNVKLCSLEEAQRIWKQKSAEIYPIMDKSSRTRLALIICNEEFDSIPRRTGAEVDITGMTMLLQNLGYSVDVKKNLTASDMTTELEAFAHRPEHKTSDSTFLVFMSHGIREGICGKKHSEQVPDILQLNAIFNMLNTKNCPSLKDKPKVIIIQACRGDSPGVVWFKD
T1 sequence (P29466 317-404 limits assumed): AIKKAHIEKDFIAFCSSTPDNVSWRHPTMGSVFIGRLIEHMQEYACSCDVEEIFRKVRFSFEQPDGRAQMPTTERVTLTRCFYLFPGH
Description: (§1) Streptavidin-coupled magnetic beads (Dynabeads M-280 Streptavidin, ThermoFisher Scientific) were washed (TBS, pH 7.4, 0.01% NP40) and resuspended in binding buffer (TBS, pH 7.4, 0.001% NP40) containing 2E9 plaque forming units per 10 μl of bead slurry. End-over-end mixing at room temperature was performed for one hour. Phage-coated beads were washed three times with wash buffer and transferred into two protein LoBind Eppendorf tubes blocked with TBS, pH 7.4 containing 1% BSA.
Digestion occurred overnight at room temperature with end-over-end rotation. […] To remove any residual biotinylated phage that may have been nonspecifically released, the 150 μl supernatant of the quenched digest reaction is then incubated with a fresh 10 μl of slurry volume M280 streptavidin beads (pre-washed three times with wash buffer) in a LoBind Eppendorf tube blocked with TBS, pH 7.4 containing 1% BSA at room temperature for one hour with end-over-end rotation.
10 μl slurry volume of protein G magnetic dynabeads were washed in buffer (TBS, pH 7.4, 0.01% NP40) and then resuspended in 50 μl TBS, pH 7.4, 0.01% NP40 containing 4 μg of M2 FLAG antibody for thirty minutes at room temperature with end-over-end rotation. The 150 μl quenched digest reaction is added to the 10 μl FLAG-coated Protein G beads and incubated for 60 minutes at room temperature with end-over-end rotation to capture phage particles released at the protease digest step. Beads are rinsed once with 100 μl wash buffer and stored at −80° C. until PCR amplification.
Library PCR preparation, high-throughput DNA sequencing, and peptide read count data generation was performed as described previously.^44 Briefly, library peptide inserts are amplified by resuspending 10 μl of FLAG-coated Protein G beads in PCR1 master mix containing the T7-Pep2_PCR1_F forward primer ([…]) (SEQ ID NO:3) and a T7-SEPARATE vector specific reverse primer ([…]) (SEQ ID NO:4), which includes an adapter sequence for sample-specific barcoding and Illumina P7 adapter incorporation during a subsequent PCR2 reaction. The PCR2 amplicons are pooled and sequenced using an Illumina NextSeq instrument in standard output mode to obtain single-end 50 nucleotide reads. Dual indexed sample demultiplexing and clonal read count determination were performed using exact sequence matching. […] To calculate the normalization factor, 100 peptides were randomly selected from the mock digest conditions with a read count ranging between 10 and 40. The median read count value for these 100 peptides is calculated for each sample. The random peptide selection and median calculation is performed 20 times and the average of the 20 median values is calculated for each sample. Finally, the normalization factor is calculated by dividing the average median value for each sample by that for one of the mock digest conditions. Read counts are then converted to normalized read counts by dividing each sample's read count values by the normalization factor. Fold enrichments are calculated for each peptide by dividing their normalized read counts in the digest condition by the normalized read counts in the mock digest condition. The fold enrichments can be visualized in an MA plot by transforming the normalized read count data into a log ratio (M, on the y-axis) and a mean average (A, on the x-axis) between the digest and mock digest conditions.
The performance of the SEPARATE assay is expected to depend on protease-substrate requirements as well as biophysical features of the peptide library. The present inventors have verified by PCR and Sanger sequencing that 90% of the immobilized human library lacks in-frame mutations. […] To explore this further, a 56-amino acid mouse peptidome library (unpublished) was used in which both IL-1β and Gasdermin-D cleavage peptides are better represented. […] Mouse IL-1β and Gasdermin-D are highly similar to the human versions and can serve as substrates for human Caspase-1. […]

endogenous Caspase-1 = target: T2, endogenous Caspase-1 (Homo sapiens, UniProt P29466); experiment: In vitro stimulation of the inflammasome in THP-1 cells (Western blot); format: cell-based; settings: PMA differentiated THP-1 cells, LPS and Nigericin
T2 construct: endogenous in cells; host or cells: PMA-differentiated THP-1 cells
T2 sequence (P29466 120-404): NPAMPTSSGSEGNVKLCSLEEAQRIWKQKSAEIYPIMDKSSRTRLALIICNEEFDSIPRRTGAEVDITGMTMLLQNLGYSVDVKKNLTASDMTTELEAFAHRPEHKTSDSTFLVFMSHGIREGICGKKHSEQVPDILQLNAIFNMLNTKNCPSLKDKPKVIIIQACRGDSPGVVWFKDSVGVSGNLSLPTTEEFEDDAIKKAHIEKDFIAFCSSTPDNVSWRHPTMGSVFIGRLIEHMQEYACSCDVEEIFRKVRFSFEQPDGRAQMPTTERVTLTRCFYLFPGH
Description: THP-1 cells were cultured in RPMI-1640 media with Glutamax (Gibco, ThermoFisher, Cat #61870127), supplemented with 10% FBS (Hyclone SH30071, GE Life Sciences), and 1× Antibiotic-Antimycotic (Gibco, ThermoFisher, Cat #15240062), referred to as complete RPMI. To differentiate THP-1 cells into macrophages, 1×10^6 THP-1 cells were added per well of a 6-well plate in complete RPMI medium containing 50 ng/ml Phorbol 12-myristate 13-acetate (PMA, diluted in RPMI medium from a 1 mg/ml PMA stock in DMSO, Millipore Sigma, Cat. No. P1585). After 48 hours when the cells become adherent, the medium with PMA was removed, cells washed in 1×PBS once, and fresh complete RPMI was added. Cells were allowed to rest for an additional 24 hours before inflammasome activation with LPS and Nigericin.
A 6-well plate of PMA differentiated THP-1 cells were treated with 0, 1 or 0.1 μg/ml LPS (Millipore Sigma, Cat. No. LPS25) for 3.5 hours. After 3.5 hours, cells were treated with 2.5 μM Nigericin for an additional 30 minutes to activate the inflammasome. Cells were washed in 1×PBS and lysed in 1× mammalian cell extraction buffer (BioVision, Cat. No. K269) containing 2 μM Dithiothreitol (DTT). Nuclei were spun down by centrifugation (10,000 rpm, 5 minutes, 4° C.) and the cleared supernatant was used to perform Western blots. […]

Caspase-1 [2] = target: T1, Caspase-1; experiment: HUWE1 cleavage assay using recombinant Caspase-1 in THP-1 lysate (Western blot); format: biochemical; settings: recombinant Caspase-1 added to unstimulated THP-1 cell lysates; time-dependent
Description: Recombinant Caspase-1 (rCaspase-1) was diluted to 0.1 U/μl in 1× mammalian cell extraction buffer containing 2 μM Dithiothreitol (DTT). This buffer preserves enzymatic activity of proteases. Unstimulated, PMA differentiated THP-1 cells were also lysed in 1× mammalian cell extraction buffer with 200 μl of buffer to lyse one well of a 6-well plate (˜1×10^6 cells). Protease digests were set up with 50 μl of lysate (˜250,000 cells).
30 μl of protein lysates were mixed with 10 μl of 4× NuPage LDS sample loading buffer (Thermo Fisher, Cat. No. NP0007, final concentration to 1×). 4-12% NuPage Bis-Tris gels (Thermo Fisher, Cat. No. NP0321) were loaded with 35 μl of each sample along with high molecular weight standards (HiMark protein ladder, Thermo Fisher, Cat. No. LC5699) and resolved in 1× NuPAGE™ MES SDS Running Buffer (Thermo Fisher, Cat. No. NP0002) at 150V for 50-60 minutes. After suitable resolution of proteins, the gels were transferred to a PVDF membrane by the ‘wet transfer’ method using 1× NuPage transfer buffer (Thermo Fisher, Cat. No. NP00061) overnight at 4° C., 50 mA constant current. After transfer is complete, the membranes were washed in 1× tris buffered saline containing 0.01% Tween-20 (TBS-T), blocked for 30 minutes with 5% milk in TBS-T and probed with primary antibodies and HRP conjugated secondary antibodies with TBS-T washing in between. […]

Caspase-1 [3] = target: T1, Caspase-1; experiment: SEPARATE assay: human peptidome library digest with Caspase-1; format: biochemical; settings: unstimulated THP-1 cell lysate supplemented with 0.1 units of recombinant Caspase-1
Description: as §1
Digestion occurred overnight at room temperature with end-over-end rotation. […]
Library PCR preparation, high-throughput DNA sequencing, and peptide read count data generation was performed as described previously.^44 Briefly, library peptide inserts are amplified by resuspending 10 μl of FLAG-coated Protein G beads in PCR1 master mix containing the T7-Pep2_PCR1_F forward primer ([…]) (SEQ ID NO:3) and a T7-SEPARATE vector specific reverse primer ([…]) (SEQ ID NO:4), which includes an adapter sequence for sample-specific barcoding and Illumina P7 adapter incorporation during a subsequent PCR2 reaction. The PCR2 amplicons are pooled and sequenced using an Illumina NextSeq instrument in standard output mode to obtain single-end 50 nucleotide reads. Dual indexed sample demultiplexing and clonal read count determination were performed using exact sequence matching. […]

Thrombin = target: T3, Thrombin (Homo sapiens, UniProt P00734); experiment: SEPARATE assay: human peptidome library digest with Thrombin; format: biochemical; settings: human library, Thrombin
T3 construct: Thrombin (a serine protease); purchased SignalChem
Description: The PCR2 amplicons are pooled and sequenced using an Illumina NextSeq instrument in standard output mode to obtain single-end 50 nucleotide reads. Dual indexed sample demultiplexing and clonal read count determination were performed using exact sequence matching. […] To calculate the normalization factor, 100 peptides were randomly selected from the mock digest conditions with a read count ranging between 10 and 40. The median read count value for these 100 peptides is calculated for each sample. The random peptide selection and median calculation is performed 20 times and the average of the 20 median values is calculated for each sample. Finally, the normalization factor is calculated by dividing the average median value for each sample by that for one of the mock digest conditions. […]

| Substance | Caspase1 fold change (Caspase-1 [1]) | further results |
| --- | --- | --- |
| HUWE1 2328-2384: 56-amino acid mouse peptidome library peptide of HUWE1 (VVIAGQPEVLSSQEMQVENELEDLIDELLERDGGSGNSTIIVSRSGEDESQEDVLMD; UniProt Q7TMY8 2328-2384, looked up, fragment) | 23.12 fold | – |
| HUWE1 2291-2347: 56-amino acid mouse peptidome library peptide of HUWE1 (QDPGEPGEAEVQEEDHDVTQTEVADGDIMDGEAETDSVVIAGQPEVLSSQEMQVENE; UniProt Q7TMY8 2291-2347, looked up, fragment) | 6.13 fold | – |
| HECT, UBA and WWE Domain Containing E3 Ubiquitin Protein Ligase 1 [HUWE1] | – | cleavage by endogenous Caspase-1 upon inflammasome activation (Western blot) (endogenous Caspase-1): cleavage; cleavage of endogenous HUWE1 (Western blot) (Caspase-1 [2]): robust cleavage; enrichment in SEPARATE on a complex biological mixture (Caspase-1 [3]): among the most significantly enriched targets |
| IL1B 0-56: 56-amino acid mouse peptidome library peptide of IL-1β (MATVPELNCEMPPFDSDENDLFFEVDGPQKMKGCFQTFDLGCPDESIQLQISQQHI; UniProt P10749 1-56, looked up, fragment) | 8.10 fold | – |
| Fibrinogen | – | scoring in the SEPARATE assay (Thrombin): did not score |
| GSDMD 222-278: 56-amino acid mouse peptidome library peptide of Gasdermin-D (LLIGSKWDILLVSDEKQRTFEPSSGDRKAVGQRHHGLNVLAALCSIGKQLSLLSDGI; UniProt Q9D8T2 222-278, looked up, fragment) | 4.23 fold | – |

Second part, led by results:

| Caspase1 fold change (Caspase-1 [1]) | Substance | further results |
| --- | --- | --- |
| 8.80 fold | IL1B 75-131: 56-amino acid mouse peptidome library peptide of IL-1β (QLPVSFPWTFQDEDMSTFFSFIFEEEPILCDSWDDDDNLLVCDVPIRQLHYRLRDEQ; UniProt P10749 75-131, looked up, fragment) | – |
| 6.78 fold | GSDMD 259-315: 56-amino acid mouse peptidome library peptide of Gasdermin-D (NVLAALCSIGKQLSLLSDGIDEEELIEAADFQGLYAEVKACSSELESLEMELRQQIL; UniProt Q9D8T2 259-315, looked up, fragment) | – |
| 13.23 fold | IL1B 74-130: 56-amino acid mouse peptidome library peptide of IL-1β (WQLPVSFPWTFQDEDMSTFFSFIFEEEPILCDSWDDDDNLLVCDVPIRQLHYRLRDE; UniProt P10749 74-130, looked up, fragment) | – |
